# According to patent US20250152743A1, “SYNPOPTOSIS CIRCUITS FOR PROGRAMMABLE CELL DEATH CONTROL” (California Institute of Technology, priority 2023, published 2025):
# Like-named read-outs stand apart in the source and are kept apart here.
# B1: silencer: leucine zipper-fused GSDMA C-terminal domain; SEQ ID NO: 43 (protein)
# chain: MGSEQLEKKLQALEKKLAQLEWKNQALEKKLAQGGSGSSMHEDFKTLKEEVQRETQEVEKLSPVGRSSLLTSLSHLLGKKKELQDLEQKLEGALDKGQKVTLEALPKDVLLSKDAMDAILYFLGALTELTEEQLKILVKSLEKKILPVQLKLVESTLEQNFLQDKEGVFPLQPDLLSSLGEEELTLTEALVGLSGLEVQRSGPQYAWDPDTRHNLCALYAGLSLLHLLSRKSNALTYCALS
# B2: tobacco vein mottling virus protease (protein)
# chain: MGSSKALLKGVRDFNPISACVCLLENSSDGHSERLFGIGFGPYIIANQHLFRRNNGELTIKTMHGEFKVKNSTQLQMKPVEGRDIIVIKMAKDFPPFPQKLKFRQPTIKDRVCMVSTNFQQKSVSSLVSESSHIVHKEDTSFWQHWITTKDGQCGSPLVSIIDGNILGIHSLTHTTNGSNYFVEFPEKFVATYLDAADGWCKNWKFNADKISWGSFTLVEDAPEDDFMAKKTVAAIMDS
# notes: viral input protease
# B3: I217N: GSDME N-terminal domain mutant I217N; SEQ ID NO: 22 (protein)
# chain: MGFAKATRNFLREVDADGDLIAVSNLNDSDKLQLLSLVTKKKRFWCWQRPKYQFLSLTLGDVLIEDQFPSPVVVESDFVKYEGKFANHVSGTLETALGKVKLNLGGSSRVESQSSFGTLRKQEVDLQQLIRDSAERTINLRNPVLQQVLEGRNEVLCVLTQKITTMQKCVISEHMQVEEKCGGIVGIQTKTVQVSATEDGNVTKDSNVVLEIPAATTNAYGVIELYVKLDGQFEFCLLRGKQGGFENKKRIDSVYLDPLVFREFAFIDMPD
# B4: FIG. 1D, third module: GSDMA N-terminal domain fused to TEVP-removable degron; SEQ ID NO: 18 (protein)
# chain: MGSPVFEDVTRALVRELNPRGDLTPLDSLIDFKHFRPFCLVLRKRKSTLFWGARYVRTDYTLLDLLEPGSSPSDLTDSGNFSFKNMLDVQVQGLVEVPKTVKVKGTAGLSQSSTLEVQTLSVAPSALENLKKERKLSADHSFLNEMRYHEKNLYVVMEAVEAKQEVTVEQTGNANAIFSLPSLALLGLQGSLNNNKAVTIPKGCVLAYRVRLLRVFLFNLWDIPYICNDSMQTFPKIRRVPCSAFISPTQMISEEPEEEKLIGEGGSGLENLYFQSGSGSISLIAALAVDYVIGMENAMPWNLPADLAWFKRNTLNKPVIMGRHTWESIGRPLPGRKNIILSSQPSTDDRVTWVKSVDEAIAACGDVPEIMVIGGGRVIEQFLPKAQKLYLTHIDAEVEGDTHFPDYEPDDWESVFSEFHDADAQNSHSYCFEILERR
# B5: FIG. 1D, fourth module: GSDMA N-terminal domain with internal TEVP cleavage site; SEQ ID NO: 19 (protein)
# chain: MGSPVFEDVTRALVRELNPRGDLTPLDSLIDFKHFRPFCLVLRKRKSTLFWGARYVRTDYTLLDLLEPGSSPSDLTDSGNFSFKENLYFQSNMLDVQVQGLVEVPKTVKVKGTAGLSQSSTLEVQTLSVAPSALENLKKERKLSADHSFLNEMRYHEKNLYVVMEAVEAKQEVTVEQTGNANAIFSLPSLALLGLQGSLNNNKAVTIPKGCVLAYRVRLLRVFLFNLWDIPYICNDSMQTFPKIRRVPCSAFISPTQMISEEPEEEKLIGE
# B6: FIG. 1D, fifth module: GSDMA N-terminal domain fused to TEVP site-caged N-degron; SEQ ID NOs: 20, 40 (protein)
# chain: MGSENLYFQRHKSGAWKLPVSLVKPVFEDVTRALVRELNPRGDLTPLDSLIDFKHFRPFCLVLRKRKSTLFWGARYVRTDYTLLDLLEPGSSPSDLTDSGNFSFKNMLDVQVQGLVEVPKTVKVKGTAGLSQSSTLEVQTLSVAPSALENLKKERKLSADHSFLNEMRYHEKNLYVVMEAVEAKQEVTVEQTGNANAIFSLPSLALLGLQGSLNNNKAVTIPKGCVLAYRVRLLRVFLFNLWDIPYICNDSMQTFPKIRRVPCSAFISPTQMISEEPEEEKLIGEMGSENLYFQRHKSGAWKLPVSLVKPVFEDVTRALVRELNPRGDLTPLDSLIDFKHFRPFCLVLRKRKSTLFWGARYVRTDYTLLDLLEPGSSPSDLTDSGNFSFKNMLDVQVQGLVEVPKTVKVKGTAGLSQSSTLEVQTLSVAPSALENLKKERKLSADHSFLNEMRYHEKNLYVVMEAVEAKQEVTVEQTGNANAIFSLPSLALLGLQGSLNNNKAVTIPKGCVLAYRVRLLRVFLFNLWDIPYICNDSMQTFPKIRRVPCSAFISPTQMISEEPEEEKLIGE
# B7: wildtype GSDME: natural substrate for caspase-3; SEQ ID NO: 21 (protein)
# chain: MGFAKATRNFLREVDADGDLIAVSNLNDSDKLQLLSLVTKKKRFWCWQRPKYQFLSLTLGDVLIEDQFPSPVVVESDFVKYEGKFANHVSGTLETALGKVKLNLGGSSRVESQSSFGTLRKQEVDLQQLIRDSAERTINLRNPVLQQVLEGRNEVLCVLTQKITTMQKCVISEHMQVEEKCGGIVGIQTKTVQVSATEDGNVTKDSNVVLEIPAATTIAYGVIELYVKLDGQFEFCLLRGKQGGFENKKRIDSVYLDPLVFREFAFIDMPDAAHGISSQDGPLSVLKQATLLLERNFHPFAELPEPQQTALSDIFQAVLFDDELLMVLEPVCDDLVSGLSPTVAVLGELKPRQQQDLVAFLQLVGCSLQGGCPGPEDAGSKQLFMTAYFLVSALAEMPDSAAALLGTCCKLQIIPTLCHLLRALSDDGVSDLEDPTLTPLKDTERFGIVQRLFASADISLERLKSSVKAVILKDSKVFPLLLCITLNGLCALGREHS
# System: HEK cells
# Assay: Transient DNA transfection of HEK cells, Annexin/Sytox staining, flow cytometry
# Type: cell-based, human
# Settings: for pyroptosis, Sytox staining: with TEVP / cognate protease
# Method: HEK cells were transiently co-transfected with DNA encoding the circuits, often along with Cherry, a fluorescent protein marker, and cells were analyzed by flow cytometry 16 to 24 hours later. To quantify cell death, the cells were strained with Annexin, Sytox, or both. Annexin stains apoptotic cells by binding to phosphatidylserine exposed on the outer leaflet, and pyroptotic cells by binding to phosphatidylserine in the inner leaflet after membrane permeabilization. In contrast, Sytox, a membrane-impermeable dye, primarily stains pyroptotic cells. Therefore, apoptotic cells are typically Annexin-high and Sytox-low, while pyroptotic cells are Annexin-high and Sytox-high (FIG. 7B). For simplicity, in experiments involving only a single death mode, a single relevant dye was often used. To focus on cells influenced by the circuits, the fraction of Annexin- or Sytox-positive cells was calculated after gating on the fluorescent co-transfection marker (FIG. 7C).
# On the day before transfection, HEK cells were seeded at a density of 0.3-0.6 million cells per well on a 12-well plate, 0.1-0.3 million cells per well on a 24-well plate, or 15,000-50,000 cells per well on a 96-well plate. The cells were allowed to attach to the plate overnight, for at least 8 hours. On the day of transfection, we treated the cells with purified DNA plasmids encoding circuit components. In addition to plasmids encoding circuit components, we often included a plasmid encoding a fluorescent co-transfection marker, at roughly 50 ng DNA per well on a 24-well plate. Given the different number of molecular components in each synthetic circuit and their various relative ratios, the total amount of DNA ranged from 50 to 1 μg per well on a 24-well plate, and was scaled by […] when other 12-well or 96-well plates were used, respectively. On the same plate, we often equalized the total amount of DNA across all transfected wells, using a filler plasmid encoding the neomycin resistance gene. To transfect cells with plasmid DNA, we used three types of transfection reagents—Lipofectamine 2000 (Thermo Fisher), Lipofectamine 3000 (Thermo Fisher), and FuGENE HD (Promega), according to manufacturers' instructions. Briefly, for a typical transfection experiment on a 24-well plate, we mixed plasmids and the transfection reagent, around 200 ng of DNA per 1 μl of Lipofectamine 2000, in 25 μl of Opti-MEM reduced serum medium (Thermo Fisher), incubated the mixture for 5-10 min at room temperature, and then added another 25 μl of Opti-MEM before transferring the mixture dropwise to culture wells. We also performed some transfection experiments using the Lipofectamine 3000 kit (Thermo Fisher), at a ratio of 2,000 ng of DNA, 2 ul of 4 ul of P3000, and 3 μl of Lipofectamine 3000. We similarly diluted the mixture in Opti-MEM before adding it to cells. For transfection with FuGENE, we used a ratio of 4 μl FuGENE:1 μg of DNA, and incubated the DNA-FuGENE mixture at room temperature for 5 min before transfection. To enable protein expression from plasmids with a doxycycline-inducible promoter, doxycycline was added to the cell culture at a final concentration of 100 ng/mL. In experiments involving Q-VD-OPh, the compound was added to the cell culture at a final concentration of 30 μM, immediately after the cells received the transfection mixture. To transfect cells with in vitro transcribed mRNA, Lipofectamine MessengerMax (Thermo Fisher) was used. Briefly, for transfection of one well in a 96-well plate, 0.1 μL of Lipofectamine MessengerMAX was diluted in 1.25 μL Opti-MEM and incubated for 10 minutes at room temperature. mRNA was then added to Opti-MEM to the appropriate conditions at the following amounts: 12.5 ng of fluorescent co-transfection marker, 56.25 ng of protease, and 56.25 ng of engineered executioner. Diluted mRNA was then added to diluted MessengerMAX reagent and incubated for 5 minutes at room temperature before addition to Jurkat or THP-1 cells in RPMI media. […]
# [1] = co-transfected with wildtype GSDME, TEVP and TEVP-activatable caspase-3
molecule,measurement,setting,value
B1,inhibition of pyroptosis induced by wildtype GSDMA N-terminal domain,,did not inhibit pyroptosis
same,inhibition of pyroptosis induced by zipper-attached GSDMA N-terminal domain (GSDMA N-Z),,markedly suppressed pyroptosis
same,inhibition of pyroptosis induced by zipper-attached GSDMA N-terminal domain (GSDMA N-Z),listed as GSDMA Z-C,potently inhibited an engineered active executioner
B2,activation of cognate engineered GSDMs containing the cleavage sites,"tev, tvmv and hcv sites",orthogonally activated their cognate engineered GSDMs
B3,inhibition of wildtype GSDME N-induced pyroptosis,,capable of inhibiting the wildtype counterpart
same,pyroptotic activity of GSDME N-terminal domain mutant,,defective in inducing pyroptosis
same,"apoptosis, Annexin levels",[1],"permitting caspase-3-induced apoptosis, as read out by high Annexin levels"
same,"pyroptosis, Sytox uptake",[1],"suppressed pyroptosis, as evidenced by reduced Sytox uptake"
same,"pyroptosis, Sytox uptake","co-transfected with wildtype GSDME, TEVP and TEVP-activatable caspase-3, listed as GSDME inhibitor",pyroptosis could be attenuated to various degrees
same,inhibition of wildtype GSDME N-induced pyroptosis,listed as GSDME N(mut),inhibited wildtype GSDME N-induced pyroptosis
B4,"pyroptosis, Sytox staining",,removal of the degron by TEVP also induced pyroptosis
B5,"pyroptosis, Sytox staining",,abolished its activity
B6,"pyroptosis, Sytox staining",,allowed protease-mediated suppression of pyroptosis
B7,"mode of cell death, Sytox and Annexin double staining",background of TEVP activating TEVP-activatable caspase-3,caused pyroptosis in response to TEVP-mediated caspase-3 activation
same,cell death by the protein alone,without caspase-3 activation,alone did not induce cell death
